B1: wild-type UCHL1 (UCHL1^WT), C-terminal 6-His tag (protein)
chain: MQLKPMEINPEMLNKVLSRLGVAGQWRFVDVLGLEEESLGSVPAPACALLLLFPLTAQHENFRKKQIEELKGQEVSPKVYFMKQTIGNSCGTIGLIHAVANNQDKLGFEDGSVLKQFLSETEKMSPEDRAKCFEKNEAIQAAHDAVAQEGQCRVDDKVNFHFILFNNVDGHLYELDGRMPFPVNHGASSEDTLLKDAAKVCREFTEREQGEVRFSAVALCHHHHHH
B2: wild-type UCHL5 (UCHL5^WT), C-terminal 6-His tag (protein)
chain: MTGNAGEWCLMESDPGVFTELIKGFGCRGAQVEEIWSLEPENFEKLKPVHGLIFLFKWQPGEEPAGSVVQDSRLDTIFFAKQVINNACATQAIVSVLLNCTHQDVHLGETLSEFKEFSQSFDAAMKGLALSNSDVIRQVHNSFARQQMFEFDTKTSAKEEDAFHFVSYVPVNGRLYELDGLREGPIDLGACNQDDWISAVRPVIEKRIQKYSEGEIRFNLMAIVSDRKMIYEQKIAELQRQLAEEEPMDTDQGNSMLSAIQSEVAKNQMLIEEEVQKLKRYKIENIRRKHNYLPFIMELLKTLAEHQQLIPLVEKAKEKQNAKKAQETKHHHHHH

Target: Ub vinyl sulfone HA-tagged probe (Ub-VS-HA; Cat #U-212, Boston Biochem), P0CG48
Sequence (P0CG48 whole entry, looked up): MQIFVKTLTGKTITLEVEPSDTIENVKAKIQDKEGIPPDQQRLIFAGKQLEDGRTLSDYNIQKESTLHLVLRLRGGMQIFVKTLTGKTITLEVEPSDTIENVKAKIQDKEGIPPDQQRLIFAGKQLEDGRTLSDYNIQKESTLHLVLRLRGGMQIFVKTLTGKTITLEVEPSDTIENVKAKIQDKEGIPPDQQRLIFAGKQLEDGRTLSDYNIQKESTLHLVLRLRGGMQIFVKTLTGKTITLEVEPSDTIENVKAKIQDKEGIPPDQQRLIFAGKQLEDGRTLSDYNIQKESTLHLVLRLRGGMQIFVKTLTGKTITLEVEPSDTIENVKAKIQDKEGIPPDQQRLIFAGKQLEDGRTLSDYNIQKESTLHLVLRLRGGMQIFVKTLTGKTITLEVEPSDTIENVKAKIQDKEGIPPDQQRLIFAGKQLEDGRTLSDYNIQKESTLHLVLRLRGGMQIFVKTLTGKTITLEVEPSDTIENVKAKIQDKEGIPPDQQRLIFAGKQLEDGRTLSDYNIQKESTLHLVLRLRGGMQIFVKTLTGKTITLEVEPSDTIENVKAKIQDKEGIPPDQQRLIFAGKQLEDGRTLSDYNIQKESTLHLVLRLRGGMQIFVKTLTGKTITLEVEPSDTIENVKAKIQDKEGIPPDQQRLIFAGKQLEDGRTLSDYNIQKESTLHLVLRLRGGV

| Protein | modification by the suicide probe Ub-VS (immunoblot) |
| --- | --- |
| B1 | UCHL1^WT readily reacted with Ub-VS, nearing completion after 30 minutes |
| B2 | UCHL5^WT was only partially modified at 30 minutes |

Source: patent US20240109958
